Values quoted from earlier work, collected in patent US12714740B2, “Compositions comprising a tweak ligand and methods of using same” (Children's Hospital Medical Center, priority 2019, dated 2026).

Target: T1, Fn14 (Homo sapiens, UniProt Q9NP84)
T1 sequence (Q9NP84 28-129): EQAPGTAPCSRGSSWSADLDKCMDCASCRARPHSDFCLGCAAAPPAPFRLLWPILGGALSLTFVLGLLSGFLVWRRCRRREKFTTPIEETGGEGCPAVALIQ
Conditions: natural ligand binding to Fn14; high affinity; read-out: interaction affinity constant (Kd)

B1: TWEAK: natural ligand for Fn14; 14 kDa protein, TNF superfamily member 12 (protein, UniProt O43508 94-249, looked up)
Tumor necrosis factor ligand …: SAPKGRKTRARRAIAAHYEVHPRPGQDGAQAGVDGTVSGWEEARINSSSPLRYNRQIGEFIVTRAGLYYLYCQVHFDEGKAVYLKLDLLVDGVLALRCLEEFSATAASSLGPQLRLCQVSGLLALRPGSSLRIRTLPWAHLKAAPFLTYFGLFQVH
In the case of B1, the Kd is listed as 0.8 to 2.4 nM.
